Laboratory results published in IntAct's records for PubMed 31515488.

B1: Cyclin-D1-binding protein 1 (Homo sapiens), O95273 (parent)
chain: MASATAPAAAVPTLASPLEQLRHLAEELRLLLPRVRVGEAQETTEEFNREMFWRRLNEAAVTVSREATTLTIVFSQLPLPSPQETQKFCEQVHAAIKAFIAVYYLLPKDQGITLRKLVRGATLDIVDGMAQLMEVLSVTPTQSPENNDLISYNSVWVACQQMPQIPRDNKAAALLMLTKNVDFVKDAHEEMEQAVEECDPYSGLLNDTEENNSDNHNHEDDVLGFPSNQDLYWSEDDQELIIPCLALVRASKACLKKIRMLVAENGKKDQVAQLDDIVDISDEISPSVDDLALSIYPPMCHLTVRINSAKLVSVLKKALEITKASHVTPQPEDSWIPLLINAIDHCMNRIKELTQSELEL
partner: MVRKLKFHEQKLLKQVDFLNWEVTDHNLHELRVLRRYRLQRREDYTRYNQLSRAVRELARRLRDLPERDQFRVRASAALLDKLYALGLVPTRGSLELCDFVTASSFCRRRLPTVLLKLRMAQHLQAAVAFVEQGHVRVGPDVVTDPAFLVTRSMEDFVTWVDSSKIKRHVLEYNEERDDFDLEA
B2: ATPase PAAT (Homo sapiens), Q9H8K7 (parent)
chain: METRTEDGGLTRRPTLASSWDVAGGALTHSLLLTRAGLGPGDFDWEELLAPPAPGQDLVILKRNHNNKDENPCFLYLRCGPDGGEEIASIGILSSARNMEVYLGEEYCGTSRGKNVCTVLDDSEHEKIILYKKNLKLESSTHACKIKLLSFGERQCVFISKVVVHMRSVFANSSTSSPALGSRIDLDKVQTIMESMGSKLSPGAQQLMDMVRCQQRNCIPIGEQLQSVLGNSGYKHMIGLQSSSTLGTLNKSSSTPFPFRTGLTSGNVTENLQTYIDKSTQLPGGENSTKLDECKVMPQNHSFLENDLKNAMASFLPKKVSDNSNIPNSELLPFLQNLCSQVNHLHVGNKTECQENITKHGERILGVGMEEQSICSYLEKILSKNMELMEKKLMDYIDQRIHELQEHIDDKIALLLDLLQNPNSPPTGIPLRHYDSGERLSNGER
partner: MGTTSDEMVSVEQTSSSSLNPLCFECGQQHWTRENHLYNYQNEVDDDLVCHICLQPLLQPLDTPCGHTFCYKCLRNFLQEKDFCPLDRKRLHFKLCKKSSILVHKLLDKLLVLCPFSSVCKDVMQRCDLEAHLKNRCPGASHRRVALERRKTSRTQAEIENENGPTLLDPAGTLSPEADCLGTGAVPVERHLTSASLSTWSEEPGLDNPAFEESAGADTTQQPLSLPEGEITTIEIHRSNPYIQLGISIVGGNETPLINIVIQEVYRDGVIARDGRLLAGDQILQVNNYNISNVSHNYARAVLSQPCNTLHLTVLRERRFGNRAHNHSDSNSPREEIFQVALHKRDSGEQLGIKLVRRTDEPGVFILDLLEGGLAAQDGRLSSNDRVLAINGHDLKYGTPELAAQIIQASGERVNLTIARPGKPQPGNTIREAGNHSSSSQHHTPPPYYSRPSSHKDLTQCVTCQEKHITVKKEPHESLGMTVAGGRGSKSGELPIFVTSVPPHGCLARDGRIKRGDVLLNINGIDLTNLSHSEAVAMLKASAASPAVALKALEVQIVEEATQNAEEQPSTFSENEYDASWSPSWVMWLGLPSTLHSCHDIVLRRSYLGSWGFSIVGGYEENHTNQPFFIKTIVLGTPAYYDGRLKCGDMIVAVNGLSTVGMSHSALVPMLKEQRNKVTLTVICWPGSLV
B3: Alpha-taxilin (Homo sapiens), P40222 (parent)
chain: MKNQDKKNGAAKQSNPKSSPGQPEAGPEGAQERPSQAAPAVEAEGPGSSQAPRKPEGAQARTAQSGALRDVSEELSRQLEDILSTYCVDNNQGGPGEDGAQGEPAEPEDAEKSRTYVARNGEPEPTPVVNGEKEPSKGDPNTEEIRQSDEVGDRDHRRPQEKKKAKGLGKEITLLMQTLNTLSTPEEKLAALCKKYAELLEEHRNSQKQMKLLQKKQSQLVQEKDHLRGEHSKAVLARSKLESLCRELQRHNRSLKEEGVQRAREEEEKRKEVTSHFQVTLNDIQLQMEQHNERNSKLRQENMELAERLKKLIEQYELREEHIDKVFKHKDLQQQLVDAKLQQAQEMLKEAEERHQREKDFLLKEAVESQRMCELMKQQETHLKQQLALYTEKFEEFQNTLSKSSEVFTTFKQEMEKMTKKIKKLEKETTMYRSRWESSNKALLEMAEEKTVRDKELEGLQVKIQRLEKLCRALQTERNDLNKRVQDLSAGGQGSLTDSGPERRPEGPGAQAPSSPRVTEAPCYPGAPSTEASGQTGPQEPTSARA
partner: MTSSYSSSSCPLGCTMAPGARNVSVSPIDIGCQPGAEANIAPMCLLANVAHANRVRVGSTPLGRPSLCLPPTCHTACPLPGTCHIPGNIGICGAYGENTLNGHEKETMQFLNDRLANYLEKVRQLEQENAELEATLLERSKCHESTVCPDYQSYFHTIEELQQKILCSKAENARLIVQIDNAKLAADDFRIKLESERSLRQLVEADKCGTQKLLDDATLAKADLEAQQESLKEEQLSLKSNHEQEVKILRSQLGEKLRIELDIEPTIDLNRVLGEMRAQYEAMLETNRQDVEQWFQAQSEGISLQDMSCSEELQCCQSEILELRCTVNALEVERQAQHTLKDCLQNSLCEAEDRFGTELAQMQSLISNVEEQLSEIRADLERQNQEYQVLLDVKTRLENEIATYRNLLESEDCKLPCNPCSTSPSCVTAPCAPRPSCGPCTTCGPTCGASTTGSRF
B4: Isoform 1 of Cyclin-dependent kinase 2-interacting protein (Homo sapiens), Q9BW66-1 (parent)
chain: MEAKTLGTVTPRKPVLSVSARKIKDNAADWHNLILKWETLNDAGFTTANNIANLKISLLNKDKIELDSSSPASKENEEKVCLEYNEELEKLCEELQATLDGLTKIQVKMEKLSSTTKGICELENYHYGEESKRPPLFHTWPTTHFYEVSHKLLEMYRKELLLKRTVAKELAHTGDPDLTLSYLSMWLHQPYVESDSRLHLESMLLETGHRAL
partner: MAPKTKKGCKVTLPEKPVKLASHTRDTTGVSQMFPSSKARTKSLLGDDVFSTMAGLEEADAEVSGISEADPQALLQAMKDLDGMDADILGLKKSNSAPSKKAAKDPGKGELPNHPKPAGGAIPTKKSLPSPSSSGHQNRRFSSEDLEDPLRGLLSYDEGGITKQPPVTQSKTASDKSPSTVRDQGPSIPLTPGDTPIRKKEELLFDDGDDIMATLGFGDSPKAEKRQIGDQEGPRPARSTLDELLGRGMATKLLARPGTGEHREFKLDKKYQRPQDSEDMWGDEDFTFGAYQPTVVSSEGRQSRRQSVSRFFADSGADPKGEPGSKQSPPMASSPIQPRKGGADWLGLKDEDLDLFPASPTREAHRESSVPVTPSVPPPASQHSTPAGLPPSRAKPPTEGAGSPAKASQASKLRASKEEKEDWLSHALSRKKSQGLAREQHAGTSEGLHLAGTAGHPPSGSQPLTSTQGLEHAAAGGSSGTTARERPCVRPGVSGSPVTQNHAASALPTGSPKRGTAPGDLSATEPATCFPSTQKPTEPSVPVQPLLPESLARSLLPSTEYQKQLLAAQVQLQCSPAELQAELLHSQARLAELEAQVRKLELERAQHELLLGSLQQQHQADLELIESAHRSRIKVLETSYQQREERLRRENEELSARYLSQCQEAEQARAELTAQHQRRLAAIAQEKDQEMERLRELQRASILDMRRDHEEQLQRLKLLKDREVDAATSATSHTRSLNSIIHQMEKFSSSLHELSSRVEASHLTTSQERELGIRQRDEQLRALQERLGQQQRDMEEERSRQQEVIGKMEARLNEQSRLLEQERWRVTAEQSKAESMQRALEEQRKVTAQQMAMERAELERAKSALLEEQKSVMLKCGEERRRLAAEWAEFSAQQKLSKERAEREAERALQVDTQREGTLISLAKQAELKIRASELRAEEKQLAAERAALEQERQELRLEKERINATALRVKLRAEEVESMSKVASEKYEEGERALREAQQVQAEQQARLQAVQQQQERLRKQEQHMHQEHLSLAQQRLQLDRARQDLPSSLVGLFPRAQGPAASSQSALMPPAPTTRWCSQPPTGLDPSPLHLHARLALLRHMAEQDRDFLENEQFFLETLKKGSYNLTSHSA
B5: Trichoplein keratin filament-binding protein (Homo sapiens), Q9BT92 (parent)
chain: MALPTLPSYWCSQQRLNQQLARQREQEARLRQQWEQNSRYFRMSDICSSKQAEWSSKTSYQRSMHAYQREKMKEEKRRSLEARREKLRQLMQEEQDLLARELEELRLSMNLQERRIREQHGKLKSAKEEQRKLIAEQLLYEHWKKNNPKLREMELDLHQKHVVNSWEMQKEEKKQQEATAEQENKRYENEYERARREALERMKAEEERRQLEDKLQAEALLQQMEELKLKEVEATKLKKEQENLLKQRWELERLEEERKQMEAFRQKAELGRFLRHQYNAQLSRRTQQIQEELEADRRILQALLEKEDESQRLHLARREQVMADVAWMKQAIEEQLQLERAREAELQMLLREEAKEMWEKREAEWARERSARDRLMSEVLTGRQQQIQEKIEQNRRAQEESLKHREQLIRNLEEVRELARREKEESEKLKSARKQELEAQVAERRLQAWEADQQEEEEEEEARRVEQLSDALLQQEAETMAEQGYRPKPYGHPKIAWN
partner: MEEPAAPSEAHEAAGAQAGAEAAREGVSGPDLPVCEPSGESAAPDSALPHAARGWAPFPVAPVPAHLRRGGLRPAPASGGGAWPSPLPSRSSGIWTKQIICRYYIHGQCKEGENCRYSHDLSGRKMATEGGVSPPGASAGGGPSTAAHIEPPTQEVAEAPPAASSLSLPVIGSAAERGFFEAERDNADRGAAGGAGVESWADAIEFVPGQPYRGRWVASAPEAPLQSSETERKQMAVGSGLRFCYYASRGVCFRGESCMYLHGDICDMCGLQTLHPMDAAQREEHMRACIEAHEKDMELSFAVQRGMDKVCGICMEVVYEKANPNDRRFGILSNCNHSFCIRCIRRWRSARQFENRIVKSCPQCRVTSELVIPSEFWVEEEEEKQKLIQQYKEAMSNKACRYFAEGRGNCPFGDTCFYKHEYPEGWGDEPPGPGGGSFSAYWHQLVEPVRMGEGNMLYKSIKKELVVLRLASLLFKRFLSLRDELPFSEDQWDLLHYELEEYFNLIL
B6: Probable RNA-binding protein EIF1AD (Homo sapiens), Q8N9N8 (parent)
chain: MSQATKRKHVVKEVLGEHIVPSDQQQIVRVLRTPGNNLHEVETAQGQRFLVSMPSKYRKNIWIKRGDFLIVDPIEEGEKVKAEISFVLCKDHVRSLQKEGFWPEAFSEVAEKHNNRNRQTQPELPAEPQLSGEESSSEDDSDLFVNTNRRQYHESEEESEEEEAA
B7: Keratin, type I cytoskeletal 13 (Homo sapiens), P13646 (parent)
chain: MSLRLQSSSASYGGGFGGGSCQLGGGRGVSTCSTRFVSGGSAGGYGGGVSCGFGGGAGSGFGGGYGGGLGGGYGGGLGGGFGGGFAGGFVDFGACDGGLLTGNEKITMQNLNDRLASYLEKVRALEEANADLEVKIRDWHLKQSPASPERDYSPYYKTIEELRDKILTATIENNRVILEIDNARLAADDFRLKYENELALRQSVEADINGLRRVLDELTLSKTDLEMQIESLNEELAYMKKNHEEEMKEFSNQVVGQVNVEMDATPGIDLTRVLAEMREQYEAMAERNRRDAEEWFHTKSAELNKEVSTNTAMIQTSKTEITELRRTLQGLEIELQSQLSMKAGLENTVAETECRYALQLQQIQGLISSIEAQLSELRSEMECQNQEYKMLLDIKTRLEQEIATYRSLLEGQDAKMIGFPSSAGSVSPRSTSVTTTSSASVTTTSNASGRRTSDVRRP
partner: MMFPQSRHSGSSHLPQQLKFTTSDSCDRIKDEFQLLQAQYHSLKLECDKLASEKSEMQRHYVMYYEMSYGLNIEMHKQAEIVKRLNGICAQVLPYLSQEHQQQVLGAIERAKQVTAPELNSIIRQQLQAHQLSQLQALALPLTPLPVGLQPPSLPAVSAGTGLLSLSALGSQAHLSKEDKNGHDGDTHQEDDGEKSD

Variants of: B1
Conditions: with imp3_human IMP3, Q9NV31

Variant | effect of a mutation on the interaction
I277T | disrupting interaction strength

Variants of: B2
Conditions: with lnx2_human LNX2, Q8N448

Variant | effect of a mutation on the interaction
G8R | with no effect

Variants of: B3
Conditions: with krt38_human KRT38, O76015

Variant | effect of a mutation on the interaction
R154G | disrupting interaction strength
S514R | with no effect
P541S | with no effect

Variants of: B4
Conditions: with fbf1_human FBF1, Q8TES7

Variant | effect of a mutation on the interaction
D177N | with no effect

Variants of: B4
Conditions: with fbf1_human FBF1, Q8TES7
Remark: another data set of the same source

Variant | effect of a mutation on the interaction
R164H | with no effect

Variants of: B5
Conditions: with mkrn3_human MKRN3, Q13064

Variant | effect of a mutation on the interaction
K127R | with no effect
E417K | with no effect

Variants of: B6
Conditions: with tbcd5_human TBC1D5, Q92609
tbcd5_human TBC1D5, Q92609, sequence (Q92609 whole entry): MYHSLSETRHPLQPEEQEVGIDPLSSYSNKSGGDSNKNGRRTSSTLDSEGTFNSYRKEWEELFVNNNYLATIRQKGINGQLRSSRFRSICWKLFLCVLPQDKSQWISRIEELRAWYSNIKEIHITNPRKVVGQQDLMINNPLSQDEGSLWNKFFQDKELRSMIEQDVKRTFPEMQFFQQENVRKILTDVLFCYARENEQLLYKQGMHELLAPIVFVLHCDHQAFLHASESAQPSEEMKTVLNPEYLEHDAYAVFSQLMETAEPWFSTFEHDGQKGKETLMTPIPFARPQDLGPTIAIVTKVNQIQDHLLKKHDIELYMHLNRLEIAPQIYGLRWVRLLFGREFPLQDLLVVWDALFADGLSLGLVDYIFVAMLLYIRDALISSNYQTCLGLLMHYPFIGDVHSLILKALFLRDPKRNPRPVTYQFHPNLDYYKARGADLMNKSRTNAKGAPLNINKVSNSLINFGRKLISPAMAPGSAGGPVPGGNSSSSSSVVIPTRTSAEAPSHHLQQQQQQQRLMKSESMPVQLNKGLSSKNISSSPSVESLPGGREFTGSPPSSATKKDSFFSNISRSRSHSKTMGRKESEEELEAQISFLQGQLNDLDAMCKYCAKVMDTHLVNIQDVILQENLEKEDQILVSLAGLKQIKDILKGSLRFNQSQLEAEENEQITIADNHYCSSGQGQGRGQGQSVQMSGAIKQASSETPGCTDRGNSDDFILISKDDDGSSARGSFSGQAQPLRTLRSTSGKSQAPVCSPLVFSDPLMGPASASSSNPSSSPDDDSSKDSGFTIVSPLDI

Variant | effect of a mutation on the interaction
R48C | with no effect

Variants of: B7
Conditions: with tle5_human TLE5, Q08117

Variant | effect of a mutation on the interaction
R355H | with no effect
